# Data published in PMC3705364, “Biochemical and Electrophysiological Characterization of Two Sea Anemone Type 1 Potassium Toxins from a Geographically Distant Population of Bunodosoma caissarum” (Marine Drugs, 2013).
# Where no end group is shown, it is not given here.
# Tests used:
# [1] = target: Shaker IR (insect) (UniProt P08510)
# [2] = target: T1, hKV1.3 (Homo sapiens, UniProt P22001)
# [3] = target: rKV1.1 (rat) (UniProt P10499)
# [4] = target: rKV1.2 (rat) (UniProt P63142)
# [5] = target: rKV1.6 (rat) (UniProt P17659)
# rKV1.6 (rat), sequence (P17659 whole entry): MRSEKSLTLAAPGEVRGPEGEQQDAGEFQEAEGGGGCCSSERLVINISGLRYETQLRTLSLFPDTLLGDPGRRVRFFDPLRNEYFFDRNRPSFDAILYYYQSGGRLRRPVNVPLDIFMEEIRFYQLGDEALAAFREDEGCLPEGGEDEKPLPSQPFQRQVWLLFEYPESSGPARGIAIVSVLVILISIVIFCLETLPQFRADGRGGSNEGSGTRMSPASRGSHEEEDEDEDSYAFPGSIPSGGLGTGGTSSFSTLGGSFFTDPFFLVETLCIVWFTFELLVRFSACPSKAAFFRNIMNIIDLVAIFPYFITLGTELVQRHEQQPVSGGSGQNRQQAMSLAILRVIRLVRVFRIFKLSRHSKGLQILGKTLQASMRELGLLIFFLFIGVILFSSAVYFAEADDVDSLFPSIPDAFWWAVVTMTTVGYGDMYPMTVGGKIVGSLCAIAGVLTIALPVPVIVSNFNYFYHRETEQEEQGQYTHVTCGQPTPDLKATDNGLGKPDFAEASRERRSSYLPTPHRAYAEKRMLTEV
# [6] = target: Shaker IR (insect) (UniProt P08510); remark: listed apart in the source
# [7] = target: T1, hKV1.3; remark: listed apart in the source
# [8] = target: rKV1.1 (rat) (UniProt P10499); remark: listed apart in the source
# [9] = target: rKV1.2 (rat) (UniProt P63142); remark: listed apart in the source
# [10] = target: rKV1.6 (rat) (UniProt P17659); remark: listed apart in the source
# [11] = tested on: KV1.6; details: cited from earlier work
# From the text: In order to characterize the potency and selectivity profile, concentration-response curves were constructed for BcsTx1. […] A concentration-response curve was also constructed to determine the concentration at which BcsTx2 blocked half of the channels.
# [12] = tested on: KV1.1-4 and KV1.6; details: cited from earlier work
# Method: (§1) The pharmacological profile of BcsTx-1 and -2 were determined on a wide range of twelve KV channels (rKV1.1, rKV1.2, hKV1.3, rKV1.4, rKV1.5, rKV1.6, rKV2.1, rKV3.1, rKV4.2, rKV4.3, hERG and the insect channel Shaker IR; r: rat and h: human). Channels were expressed in X. laevis oocytes, and their currents were recorded by using two-electrode voltage-clamp technique. BcsTx1 (0.5 µM) inh ...
# [13] = tested on: KV1.3 channels; details: cited from earlier work
# Method: as §1
# [14] = tested on: KV3.2 channels; details: cited from earlier work
# [15] = tested on: intermediate conductance K (Ca) channels; details: cited from earlier work
# rKV1.2 (rat), sequence (P63142 whole entry): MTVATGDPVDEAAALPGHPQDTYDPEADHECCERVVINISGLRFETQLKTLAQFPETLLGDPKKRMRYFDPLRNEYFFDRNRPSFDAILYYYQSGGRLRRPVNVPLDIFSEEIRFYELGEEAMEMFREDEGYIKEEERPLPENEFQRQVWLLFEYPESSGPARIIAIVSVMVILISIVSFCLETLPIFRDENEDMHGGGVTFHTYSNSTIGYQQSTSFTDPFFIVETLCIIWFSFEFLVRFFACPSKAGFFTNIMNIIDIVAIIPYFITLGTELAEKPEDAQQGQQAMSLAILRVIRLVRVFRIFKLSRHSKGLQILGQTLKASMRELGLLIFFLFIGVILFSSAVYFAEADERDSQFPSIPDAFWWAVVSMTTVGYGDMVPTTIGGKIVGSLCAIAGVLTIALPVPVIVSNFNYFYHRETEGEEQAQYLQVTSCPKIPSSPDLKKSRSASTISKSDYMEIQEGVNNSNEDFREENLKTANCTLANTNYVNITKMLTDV
# rKV1.1 (rat), sequence (P10499 whole entry): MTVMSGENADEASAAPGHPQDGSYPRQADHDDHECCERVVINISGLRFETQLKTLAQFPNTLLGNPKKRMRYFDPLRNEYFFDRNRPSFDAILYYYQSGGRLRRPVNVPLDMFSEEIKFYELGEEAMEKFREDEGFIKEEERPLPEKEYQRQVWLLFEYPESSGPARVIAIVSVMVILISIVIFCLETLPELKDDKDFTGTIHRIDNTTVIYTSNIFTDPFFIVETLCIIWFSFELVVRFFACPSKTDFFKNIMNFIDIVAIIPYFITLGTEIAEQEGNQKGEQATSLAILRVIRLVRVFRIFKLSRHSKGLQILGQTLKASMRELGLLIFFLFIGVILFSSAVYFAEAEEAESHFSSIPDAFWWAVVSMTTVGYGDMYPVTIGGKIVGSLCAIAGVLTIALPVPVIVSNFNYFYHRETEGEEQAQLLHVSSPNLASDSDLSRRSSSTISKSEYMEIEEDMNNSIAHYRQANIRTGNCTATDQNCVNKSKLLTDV
# T1 sequence (P22001 whole entry): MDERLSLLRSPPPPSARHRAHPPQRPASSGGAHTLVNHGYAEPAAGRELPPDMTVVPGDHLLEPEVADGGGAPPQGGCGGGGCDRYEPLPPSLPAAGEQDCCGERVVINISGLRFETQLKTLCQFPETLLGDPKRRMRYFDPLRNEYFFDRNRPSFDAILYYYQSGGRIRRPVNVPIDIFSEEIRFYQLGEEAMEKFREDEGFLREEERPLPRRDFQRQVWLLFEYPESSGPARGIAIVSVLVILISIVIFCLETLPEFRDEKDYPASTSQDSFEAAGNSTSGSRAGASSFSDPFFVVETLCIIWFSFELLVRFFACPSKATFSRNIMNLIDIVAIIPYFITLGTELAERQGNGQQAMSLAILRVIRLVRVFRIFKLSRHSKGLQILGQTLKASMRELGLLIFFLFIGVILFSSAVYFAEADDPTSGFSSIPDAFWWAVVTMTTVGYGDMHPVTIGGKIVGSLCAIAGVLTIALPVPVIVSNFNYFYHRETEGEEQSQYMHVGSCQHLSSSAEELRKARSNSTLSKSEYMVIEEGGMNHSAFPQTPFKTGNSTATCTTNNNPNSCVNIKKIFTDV
# Shaker IR (insect), sequence (P08510 whole entry): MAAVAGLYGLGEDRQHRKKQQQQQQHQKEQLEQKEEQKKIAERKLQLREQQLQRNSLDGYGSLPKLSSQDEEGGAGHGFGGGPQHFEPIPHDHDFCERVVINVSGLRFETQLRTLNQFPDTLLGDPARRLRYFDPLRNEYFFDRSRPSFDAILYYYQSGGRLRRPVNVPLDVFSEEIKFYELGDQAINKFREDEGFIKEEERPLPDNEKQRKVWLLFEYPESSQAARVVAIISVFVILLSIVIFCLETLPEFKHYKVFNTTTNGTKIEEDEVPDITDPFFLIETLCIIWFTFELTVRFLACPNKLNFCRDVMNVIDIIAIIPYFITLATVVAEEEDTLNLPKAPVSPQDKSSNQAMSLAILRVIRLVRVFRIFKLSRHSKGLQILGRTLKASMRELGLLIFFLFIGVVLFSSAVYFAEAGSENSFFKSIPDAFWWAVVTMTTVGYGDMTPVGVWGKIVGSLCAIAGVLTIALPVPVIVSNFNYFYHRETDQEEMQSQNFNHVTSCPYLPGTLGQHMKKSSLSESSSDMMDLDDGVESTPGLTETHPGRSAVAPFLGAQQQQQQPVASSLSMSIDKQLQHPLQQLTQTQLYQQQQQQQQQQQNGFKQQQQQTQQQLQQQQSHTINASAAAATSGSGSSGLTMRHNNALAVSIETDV
substance,measurement,setting,value
BcsTx2 (from UniProt C0HJC3 1-37) (peptide),"IC50 of block of the channel's K+ current, two-electrode voltage clamp on X. laevis oocytes, concentration-response curve",[1],49.1 nM
same,"IC50 of block of the channel's K+ current, two-electrode voltage clamp on X. laevis oocytes, concentration-response curve",[2],13.1 nM
same,"IC50 of block of the channel's K+ current, two-electrode voltage clamp on X. laevis oocytes, concentration-response curve",[3],14.4 nM
same,"IC50 of block of the channel's K+ current, two-electrode voltage clamp on X. laevis oocytes, concentration-response curve",[4],80.4 nM
same,"IC50 of block of the channel's K+ current, two-electrode voltage clamp on X. laevis oocytes, concentration-response curve",[5],7.76 nM
same,"percent inhibition of the channel's current by 3 µM BcsTx2, two-electrode voltage clamp on X. laevis oocytes",[6],94%
same,"percent inhibition of the channel's current by 3 µM BcsTx2, two-electrode voltage clamp on X. laevis oocytes",[7],100%
same,"percent inhibition of the channel's current by 3 µM BcsTx2, two-electrode voltage clamp on X. laevis oocytes",[8],96%
same,"percent inhibition of the channel's current by 3 µM BcsTx2, two-electrode voltage clamp on X. laevis oocytes",[9],100%
same,"percent inhibition of the channel's current by 3 µM BcsTx2, two-electrode voltage clamp on X. laevis oocytes",[10],98%
"MgTX: toxin from Centruroides margaritatus (TIINVKCTSPKQCLPPCKAQFGQSAGAKCMNGKCKCYPH; ends and bridges not checked; cysteine pairing not given here; UniProt P40755 1-39, looked up)",IC50,[11],5 nM
same,binding affinity to KV1.6 (in words),[11],binds with very high affinity to KV1.6
ShK: type 1 sea anemone toxin from Stichodactyla helianthus (Swiss-Prot P29187),block of KV1.1-4 and KV1.6 (in words),[12],blocks KV1.1-4 and KV1.6
same,block of KV1.3 (in words),[13],block KV1.3 channels
same,activity against KV3.2 (in words),[14],shows activity against KV3.2 channels
same,block of intermediate conductance K (Ca) channels (in words),[15],block intermediate conductance K (Ca) channels
